These results are taken from patent US20230092787A1 (UNIVERSITY OF VIRGINIA PATENT FOUNDATION, published 2023).

In assay [1] the target is T1, integrin alphav beta3 (αvβ3), human, on tumor cell lines (human, UniProt P06756 31-1048; P05106 27-788).
T1 construct: whole, on cells; Endogenous heterodimer on human DIPG and GBM tumor cell lines; also called integrin αvβ3; ITGAV/ITGB3
In words: flow cytometry, PE-LM609 on GBM U251 cells. As for the experimental part:
(§1) Human T cell analysis of ex vivo expanded CAR T cells, and T cells isolated from mouse blood, brain, and spleen was performed using antibodies against CD3 (HIT3a), CD4 (OKT4), CD8 (SK1), CD45RO (UCH1.1), CD45RA (H100), CCR7 (G043H7), CD127 (A019D5), PD-1 (EH12.2H7), LAG-3 (11C3C65), TIM-3 (F38-2E2), CD45 (2D1), and TCF-1 (7F11A10) (from BioLegend, San Diego, Calif., United States of America). Expression of integrin αᵥβ₃ CAR was detected using biotinylated protein L (Thermo Fisher Scientific, Waltham, Mass., United States of America) followed by streptavidin-conjugated PE (BioLegend, San Diego, Calif., United States of America). […] Sample data was acquired on a NovoCyte 3005 Flow Cytometer (ACEA Biosciences Inc., San Diego, Calif., United States of America) and analyzed using data analysis software sold under the tradename FLOWJO™ v10 (FlowJo LLC, Ashland, Oreg., United States of America).
(§2) Tumor cell line expression of integrin αᵥβ₃ was measured by flow cytometry. More particularly, cell surface expression of integrin αᵥβ₃ was evaluated by flow cytometry staining with phycoerythrin-conjugated anti-integrin αᵥβ₃ monoclonal antibody (clone LM609) on diffuse intrinsic pontine glioma (DIPG), neuroblastoma, glioblastoma (GBM), triple-negative breast, bladder, rhabdomyosarcoma (RMS), lung, cervical squamous cell carcinoma, and melanoma tumor cell lines. […]

The target of assay [2] is T1, integrin alphav beta3 (αvβ3), human, on …. In words: flow cytometry, PE-LM609 on SU-DIPG-21 cells. As for the experimental part:
as §1, §2

For assay [3] the target is unchanged. Put plainly: flow cytometry, PE-LM609 on GBM U87 cells. As to the method: as §1, §2
Assay [4] has the same target. Put plainly: flow cytometry, PE-LM609 on SU-DIPG-17 cells. As for the experimental part:
as §1, §2

For assay [5] the target is unchanged. In words: flow cytometry, PE-LM609 on SU-DIPG-XIII cells. As to the method:
as §1, §2

Assay [6] shares this target. In words: flow cytometry, PE-LM609 on SU-DIPG-36 cells. As for the experimental part: as §1, §2
The target is the same in assay [7]. Put plainly: flow cytometry, PE-LM609 on SU-DIPG-27 cells. As to the method:
as §1, §2

Assay [8] has the same target. In words: flow cytometry, PE-LM609 on SU-DIPG-IV cells. As for the experimental part: as §1, §2

T1 sequence (P06756 31-1048, chain 1 of 2): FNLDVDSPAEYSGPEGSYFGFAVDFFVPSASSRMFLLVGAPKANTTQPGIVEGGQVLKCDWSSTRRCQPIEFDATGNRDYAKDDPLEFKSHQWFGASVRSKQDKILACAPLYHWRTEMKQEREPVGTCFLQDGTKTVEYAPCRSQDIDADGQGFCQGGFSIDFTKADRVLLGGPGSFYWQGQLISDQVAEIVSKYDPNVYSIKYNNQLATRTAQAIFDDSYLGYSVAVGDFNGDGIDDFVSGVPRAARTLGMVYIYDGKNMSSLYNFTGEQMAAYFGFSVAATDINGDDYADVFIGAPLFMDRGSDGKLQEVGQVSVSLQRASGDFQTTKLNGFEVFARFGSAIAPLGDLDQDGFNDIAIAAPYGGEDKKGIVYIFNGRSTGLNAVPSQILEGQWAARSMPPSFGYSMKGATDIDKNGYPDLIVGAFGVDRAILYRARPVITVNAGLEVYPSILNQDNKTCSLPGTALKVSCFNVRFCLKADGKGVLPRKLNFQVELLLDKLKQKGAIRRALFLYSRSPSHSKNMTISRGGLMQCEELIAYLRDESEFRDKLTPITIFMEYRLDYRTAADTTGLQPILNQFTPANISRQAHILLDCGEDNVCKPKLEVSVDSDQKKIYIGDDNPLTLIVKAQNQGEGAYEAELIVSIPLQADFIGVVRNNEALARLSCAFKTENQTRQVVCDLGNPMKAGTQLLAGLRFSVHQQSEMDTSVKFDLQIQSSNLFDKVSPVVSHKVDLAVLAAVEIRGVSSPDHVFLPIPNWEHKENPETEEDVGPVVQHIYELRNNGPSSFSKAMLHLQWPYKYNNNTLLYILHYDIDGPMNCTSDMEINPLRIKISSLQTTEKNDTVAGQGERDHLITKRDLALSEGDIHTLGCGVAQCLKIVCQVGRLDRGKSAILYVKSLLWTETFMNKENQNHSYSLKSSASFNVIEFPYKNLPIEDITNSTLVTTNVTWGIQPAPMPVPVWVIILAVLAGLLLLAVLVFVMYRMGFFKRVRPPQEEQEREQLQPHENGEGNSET
T1 sequence (P05106 27-788, chain 2 of 2): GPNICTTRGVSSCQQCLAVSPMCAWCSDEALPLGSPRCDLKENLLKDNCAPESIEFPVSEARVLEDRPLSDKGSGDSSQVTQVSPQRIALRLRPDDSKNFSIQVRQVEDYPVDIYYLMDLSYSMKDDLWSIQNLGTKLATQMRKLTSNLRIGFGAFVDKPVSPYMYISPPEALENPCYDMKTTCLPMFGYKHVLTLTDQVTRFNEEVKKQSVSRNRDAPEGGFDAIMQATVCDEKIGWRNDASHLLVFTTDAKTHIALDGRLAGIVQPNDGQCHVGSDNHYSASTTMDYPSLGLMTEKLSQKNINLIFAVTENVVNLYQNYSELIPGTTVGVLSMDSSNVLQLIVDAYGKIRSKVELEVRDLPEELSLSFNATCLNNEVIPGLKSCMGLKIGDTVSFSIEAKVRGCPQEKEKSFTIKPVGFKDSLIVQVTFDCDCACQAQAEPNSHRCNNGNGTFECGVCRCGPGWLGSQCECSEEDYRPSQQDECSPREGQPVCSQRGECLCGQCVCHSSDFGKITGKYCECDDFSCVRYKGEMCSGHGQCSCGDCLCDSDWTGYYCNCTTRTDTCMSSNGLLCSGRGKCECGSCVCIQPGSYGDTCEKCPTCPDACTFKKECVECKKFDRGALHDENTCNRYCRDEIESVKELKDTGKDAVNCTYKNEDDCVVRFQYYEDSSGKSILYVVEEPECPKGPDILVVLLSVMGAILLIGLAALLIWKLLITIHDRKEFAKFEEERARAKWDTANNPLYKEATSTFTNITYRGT

B1: phycoerythrin-conjugated anti-integrin αvβ3 monoclonal antibody (clone LM609) (antibody, V domains shown)
VH: EVQLEESGGGLVKPGGSLKLSCAASGFAFSSYDMSWVRQIPEKRLEWVAKVSSGGGSTYYLDTVQGRFTISRDNAKNTLYLQMSSLNSEDTAMYYCARHNYGSFAYWGQGTLVTVSA
VL: ELVMTQTPATLSVTPGDSVSLSCRASQSISNHLHWYQQKSHESPRLLIKYASQSISGIPSRFSGSGSGTDFTLSINSVETEDFGMYFCQQSNSWPHTFGGGTKLEIK
notes: Bought reagent (Millipore Sigma), conjugated to phycoerythrin; also called PE-conjugated anti-integrin αvβ3 antibody (LM609; Millipore Sigma)
For the molecule B1, the “MFI ratio (MFI/MFI isotype control)” value in assay [1] worked out at 2; in assay [2] it was 6; in assay [3], 17; in assay [4], 5; in assay [5], 5; in assay [6] it was 16. Also, the results for the “MFI ratio (MFI/MFI isotype control)” value in assay [7] and in assay [8] were 4 and 8, respectively.
